Data published in the supplement of paper PMC7877785.
± gives the uncertainty stated by the source.

Assay: self-splicing fitness, log relative to wild type (ln ratio); higher = more splicing; Tetrahymena group I intron in knt gene, E. coli kanamycin selection, DiMSum; sequences stand for … in CUCUCU…GGAGGGAAAAGUUAUCAGGCAUGCACCUGGUAGCUAGUCUUUAAACCAAUAGAUUGCAUCGGUUUAAAAGGCAAGACCGUCAAAUUGCGGGAAAGGGGUCAACAGCCGUUCAGUACCAAGUCUCAGGGGAAACUUUGAGAUGGCCUUGCAAAGGGUAUGGUAAUAAGCUGACGGACAUGGUCCUAACCACGCAGCCAAGUCCUAAGUCAACAGAUCUUCUGUUGAUAUGGAUGCAGUUCACAGACUAAAUGUCGGUCGGGGAAGAUGUAUUCUUCUCAUAAGAUAUAGUCGGACCUCUCCUUAAUGGGAGCUAGCGGAUGAAGUGAUGCAACACUGGAGCCGCUGGGAACUAAUUUGUAUGCGAAAGUAUAUUGAUUAGUUUUGGAGUACUCGUGGUCG
In short: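 The eight P1ex-region nucleotides of an intron in the knt kanamycin-resistance gene on pET-22b(+) were all randomised and the library put into E. coli BL21(DE3). Six replicate transformations were grown overnight at 37°C or 30°C on LB agar with or without 25 μg/mL kanamycin, together with 100 μg/mL carbenicillin, 50 μM IPTG and 0.2% rhamnose. Colonies were pooled and amplicon-sequenced on an Illumina HiSeq 2500. Fitness from DiMSum is the error-weighted combination of wild-type-normalised replicate fold changes, kanamycin over none.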

| Sequence | self-splicing fitness (ln) (30 °C) | self-splicing fitness (ln) (37 °C) |
| --- | --- | --- |
| GCAGAGCAAUAUUACGUGGG | -3.55 ± 0.12 | -3.03 ± 0.15 |
| GCAUAGCAAUAUUACGAAAG | -2.72 ± 0.2 | -2.69 ± 0.24 |
| GCAUAGCAAUAUUACGAAGG | -2.02 ± 0.2 | -1.31 ± 0.22 |
| GCAUAGCAAUAUUACGAAGU | -3.88 ± 0.28 | – |
| GCAUAGCAAUAUUACGACCU | -0.833 ± 0.15 | -0.375 ± 0.15 |
| GCAUAGCAAUAUUACGACUC | -0.352 ± 0.16 | 0.841 ± 0.13 |
| GCAUAGCAAUAUUACGAGGU | -3.73 ± 0.4 | -2.07 ± 0.4 |
| GCAUAGCAAUAUUACGAGUU | -3.15 ± 0.13 | -1.33 ± 0.1 |
| GCAUAGCAAUAUUACGAUAA | -2.1 ± 0.15 | -1.27 ± 0.13 |
| GCAUAGCAAUAUUACGCCGC | – | -1.28 ± 0.27 |
| GCAUAGCAAUAUUACGCGGA | – | -1.69 ± 0.31 |
| GCAUAGCAAUAUUACGCUUC | – | -2.69 ± 0.19 |
| GCAUAGCAAUAUUACGGACA | -1.74 ± 0.15 | -0.572 ± 0.14 |
| GCAUAGCAAUAUUACGGGCU | -2.22 ± 0.23 | -0.579 ± 0.17 |
| GCAUAGCAAUAUUACGGGGU | -3.74 ± 0.23 | -1.99 ± 0.13 |
| GCAUAGCAAUAUUACGUAAC | -2.24 ± 0.13 | -1.57 ± 0.14 |
| GCAUAGCAAUAUUACGUACU | -0.89 ± 0.07 | -0.056 ± 0.079 |
| GCAUAGCAAUAUUACGUCGU | -3.44 ± 0.17 | -1.06 ± 0.13 |
| GCCAAGCAAUAUUACGAAAA | -2.45 ± 0.27 | -1.54 ± 0.2 |
| GCCAAGCAAUAUUACGAAUC | -1.25 ± 0.078 | -1.5 ± 0.095 |
| GCCAAGCAAUAUUACGAAUU | -3.39 ± 0.13 | -1.51 ± 0.1 |
| GCCAAGCAAUAUUACGACCC | -0.14 ± 0.14 | -0.813 ± 0.17 |
| GCCAAGCAAUAUUACGACUA | -1.82 ± 0.17 | -1.77 ± 0.16 |
| GCCAAGCAAUAUUACGAGAC | -2.73 ± 0.18 | -0.746 ± 0.12 |

| Sequence | self-splicing fitness (ln) (30 °C) | self-splicing fitness (ln) (37 °C) |
| --- | --- | --- |
| GCCAAGCAAUAUUACGAGGC | -2.66 ± 0.16 | -1.93 ± 0.21 |
| GCCAAGCAAUAUUACGAUGC | -1.7 ± 0.09 | -0.188 ± 0.11 |
| GCCAAGCAAUAUUACGCAAU | -1.35 ± 0.075 | -0.812 ± 0.082 |
| GCCAAGCAAUAUUACGCCGA | -1.64 ± 0.15 | -0.102 ± 0.11 |
| GCCAAGCAAUAUUACGCCGC | -2.92 ± 0.31 | -1.02 ± 0.28 |
| GCCAAGCAAUAUUACGCGCC | -3.75 ± 0.27 | -2.56 ± 0.32 |
| GCCAAGCAAUAUUACGGACA | -1.12 ± 0.11 | 0.31 ± 0.093 |
| GCCAAGCAAUAUUACGGCAA | -2.23 ± 0.17 | -1.06 ± 0.15 |
| GCCAAGCAAUAUUACGGCCC | -2.13 ± 0.2 | -1.57 ± 0.22 |
| GCCAAGCAAUAUUACGGCUU | -5.36 ± 0.34 | -3.31 ± 0.19 |
| GCCAAGCAAUAUUACGGGUC | -3.34 ± 0.18 | -2.8 ± 0.27 |
| GCCAAGCAAUAUUACGGUGC | -3.11 ± 0.24 | -2.14 ± 0.21 |
| GCCAAGCAAUAUUACGGUUU | -1.08 ± 0.047 | -0.943 ± 0.07 |
| GCCAAGCAAUAUUACGUAUU | -3.29 ± 0.16 | -2.28 ± 0.14 |
| GCCAAGCAAUAUUACGUCGU | -0.691 ± 0.058 | -0.359 ± 0.066 |
| GCCAAGCAAUAUUACGUCUU | -3.28 ± 0.2 | -2.38 ± 0.16 |
| GCCAAGCAAUAUUACGUGAG | -1.17 ± 0.071 | -0.535 ± 0.084 |
| GCCAAGCAAUAUUACGUGCU | -3.04 ± 0.11 | -1.56 ± 0.092 |
| GCCAAGCAAUAUUACGUGUC | -1.62 ± 0.06 | -0.848 ± 0.075 |
| GCCAAGCAAUAUUACGUUUG | -3.38 ± 0.16 | -2.61 ± 0.21 |
| GCCCAGCAAUAUUACGAAAA | -1.7 ± 0.1 | -1.87 ± 0.12 |
| GCCCAGCAAUAUUACGAAAC | -1.34 ± 0.058 | -0.851 ± 0.078 |
| GCCCAGCAAUAUUACGAACU | -1.26 ± 0.14 | -1 ± 0.14 |
| GCCCAGCAAUAUUACGAAUA | -1.62 ± 0.1 | -1.19 ± 0.12 |

| Sequence | self-splicing fitness (ln) (30 °C) | self-splicing fitness (ln) (37 °C) |
| --- | --- | --- |
| GCCCAGCAAUAUUACGAAUC | -0.771 ± 0.083 | -0.457 ± 0.086 |
| GCCCAGCAAUAUUACGACCA | -1.44 ± 0.19 | -0.385 ± 0.23 |
| GCCCAGCAAUAUUACGACUA | -1.54 ± 0.1 | -0.508 ± 0.11 |
| GCCCAGCAAUAUUACGACUU | -1.45 ± 0.095 | -0.824 ± 0.1 |
| GCCCAGCAAUAUUACGAGGG | -4 ± 0.18 | -2.74 ± 0.21 |
| GCCCAGCAAUAUUACGAGUC | -0.477 ± 0.039 | -0.126 ± 0.059 |
| GCCCAGCAAUAUUACGAUAU | -1.54 ± 0.077 | -1.31 ± 0.1 |
| GCCCAGCAAUAUUACGCGGC | -4.94 ± 0.39 | -2.51 ± 0.24 |
| GCCCAGCAAUAUUACGCGUA | -0.753 ± 0.061 | -0.155 ± 0.064 |
| GCCCAGCAAUAUUACGGAUG | -2.15 ± 0.075 | -1.49 ± 0.092 |
| GCCCAGCAAUAUUACGGCAC | -1.45 ± 0.067 | -0.0437 ± 0.094 |
| GCCCAGCAAUAUUACGGCGG | -3.37 ± 0.16 | -1.93 ± 0.17 |
| GCCCAGCAAUAUUACGGGCA | -2.35 ± 0.2 | -2.69 ± 0.21 |
| GCCCAGCAAUAUUACGGGCU | -3.75 ± 0.16 | -2.81 ± 0.15 |
| GCCCAGCAAUAUUACGGUAA | -0.279 ± 0.06 | 0.44 ± 0.068 |
| GCCCAGCAAUAUUACGGUGU | -2.51 ± 0.067 | -1.27 ± 0.076 |
| GCCCAGCAAUAUUACGUACC | -1.05 ± 0.12 | 0.0161 ± 0.17 |
| GCCCAGCAAUAUUACGUAGA | -0.69 ± 0.052 | 0.0571 ± 0.064 |
| GCCCAGCAAUAUUACGUAUU | -2.02 ± 0.066 | -0.786 ± 0.074 |
| GCCCAGCAAUAUUACGUCCC | -1.49 ± 0.17 | 0.384 ± 0.17 |
| GCCCAGCAAUAUUACGUCGC | -1.66 ± 0.095 | -0.355 ± 0.092 |
| GCCCAGCAAUAUUACGUGAG | -0.944 ± 0.043 | -0.161 ± 0.056 |
| GCCCAGCAAUAUUACGUGCA | -1.47 ± 0.083 | -0.691 ± 0.083 |
| GCCCAGCAAUAUUACGUGCG | -3.42 ± 0.21 | -1.71 ± 0.17 |

| Sequence | self-splicing fitness (ln) (30 °C) | self-splicing fitness (ln) (37 °C) |
| --- | --- | --- |
| GCCGAGCAAUAUUACGAACC | -0.807 ± 0.22 | 0.455 ± 0.41 |
| GCCGAGCAAUAUUACGAAUA | – | -1.51 ± 0.47 |
| GCCGAGCAAUAUUACGACAC | -1.4 ± 0.12 | -0.338 ± 0.18 |
| GCCGAGCAAUAUUACGACAG | -1.9 ± 0.22 | -2.16 ± 0.23 |
| GCCGAGCAAUAUUACGACCU | -2.33 ± 0.3 | -1.54 ± 0.36 |
| GCCGAGCAAUAUUACGAGAU | -2.65 ± 0.19 | -1.66 ± 0.2 |
| GCCGAGCAAUAUUACGAUUG | -2.48 ± 0.41 | -2.24 ± 0.47 |
| GCCGAGCAAUAUUACGCACC | -1.96 ± 0.23 | -0.483 ± 0.21 |
| GCCGAGCAAUAUUACGCCUU | -3.44 ± 0.27 | -2 ± 0.36 |
| GCCGAGCAAUAUUACGCGAU | -2.66 ± 0.2 | -3.09 ± 0.37 |
| GCCGAGCAAUAUUACGCGCA | -1.42 ± 0.19 | -0.221 ± 0.14 |
| GCCGAGCAAUAUUACGCGGU | -3.47 ± 0.18 | -3.36 ± 0.42 |
| GCCGAGCAAUAUUACGCGUA | -0.983 ± 0.069 | -0.591 ± 0.066 |
| GCCGAGCAAUAUUACGCGUU | -1.62 ± 0.076 | -0.778 ± 0.095 |
| GCCGAGCAAUAUUACGCUGA | -1.88 ± 0.17 | -0.952 ± 0.13 |
| GCCGAGCAAUAUUACGGAUG | -1.38 ± 0.06 | -0.937 ± 0.072 |
| GCCGAGCAAUAUUACGGCCA | -1.6 ± 0.11 | -1.52 ± 0.12 |
| GCCGAGCAAUAUUACGGGAG | -3.67 ± 0.24 | -2.18 ± 0.24 |
| GCCGAGCAAUAUUACGGUGG | -3.52 ± 0.16 | -3.27 ± 0.23 |
| GCCGAGCAAUAUUACGUCGU | -0.646 ± 0.081 | -0.197 ± 0.1 |
| GCCGAGCAAUAUUACGUGAA | -1.74 ± 0.076 | -0.417 ± 0.092 |
| GCCUAGCAAUAUUACGAAGG | -3.05 ± 0.17 | -2.65 ± 0.3 |
| GCCUAGCAAUAUUACGACAC | -1.06 ± 0.21 | -0.38 ± 0.27 |
| GCCUAGCAAUAUUACGACAU | -2.109 ± 0.015 | -1.02 ± 0.033 |
